We go through 6 molecules from publication PMC8285477, “The molecular basis of regulation of bacterial capsule assembly by Wzc” (Nature Communications, 2021).

For test [1], the target named is Wzc^K540M double (717 and 718) Tyr to Glu mutant (E. coli E69 (O9a:K30)) (UniProt P76387). Description: EM (kind not stated); particles of purified Tyr to Glu mutants of Wzc^K540M on EM grids, percentage of octamers (Supplementary Fig. 8a).
The target in test [2] is Wzc^K540M triple (715, 717 and 718) Tyr to Glu mutant (E. coli E69 (O9a:K30)) (UniProt P76387). The description is as above.
Test [3] deals with Wzc^K540MΔMotif3 (E. coli E69 (O9a:K30)) (UniProt P76387). Description: cryo-EM 2D classification of particles; purified protein ~1.8-2 mg/ml vitrified on grids, reference-free 2D class averages.
Test [4] deals with Wzc^K540M (E. coli E69 (O9a:K30)). Description: negative-stain EM; purified protein around 0.05 mg/ml on carbon-coated grids, 0.75% uranyl formate.
Test [5] has the same target. Description: cryo-EM structure; purified protein ~2 mg/ml in LMNG, apo and with ADP and Mg2+; C1 and C8 reconstructions.
The target in test [6] is Wzc^K540M4YE (E. coli E69 (O9a:K30)). Described as above.
For test [7] the target is unchanged. Description: cryo-EM 2D classification of particles; purified protein ~1.8-2 mg/ml vitrified on grids, reference-free 2D class averages.
The target in another test is Wzb treated Wzc (E. coli E69 (O9a:K30), UniProt P76387 1-720). The description is as above. The conditions noted are these: both partners purified.

Usually stoichiometry N stands for the number of molecules, sites or subunits per partner or assembly.

Molecule “Wzc^K540M double (717 and 718) Tyr to Glu mutant (from UniProt P76387 1-720) (enzyme)” came in with a stoichiometry N in test [1] of 8.

Consider “Wzc^K540M triple (715, 717 and 718) Tyr to Glu mutant (from UniProt P76387 1-720) (enzyme)”, for which the stoichiometry N in test [2] came out at 8.

The molecule “Wzc^K540MΔMotif3 (from UniProt P76387 1-720) (enzyme)” had a stoichiometry N in test [3] of 8.

Take “Wzc^K540M (from UniProt P76387 1-720) (enzyme)”: the stoichiometry N in test [4] and in test [5] was 8 each time.

For the molecule “Wzc^K540M4YE (from UniProt P76387 1-720) (enzyme)”, in test [6], the stoichiometry N came out at 8. For the same molecule, in test [7], the percent of particles that are octamers worked out at 50%.

B1: Wzb treated Wzc (enzyme)
chain: MTSVTSKQSTILGSDEIDLGRVIGELIDHRKLIISITSVFTLFAILYALLATPIYETDALIQIEQKQGNAILSSLSQVLPDGQPQSAPETALLQSRMILGKTIDDLNLQIQIEQKYFPVIGRGLARLMGEKPGNIDITRLYLPDSDDISNNTPSIILTVKDKENYSINSDGIQLNGVVGTLLNEKGISLLVNEIDAKPGDQFVITQLPRLKAISDLLKSFSVADLGKDTGMLTLTLTGDNPKRISHILDSISQNYLAQNIARQAAQDAKSLEFLNQQLPKVRAELDSAEDKLNAYRKQKDSVDLNMEAKSVLDQIVNVDNQLNELTFREAEVSQLYTKEHPTYKALMEKRQTLQEEKSKLNKRVSSMPSTQQEVLRLSRDVESGRAVYLQLLNRQQELNIAKSSAIGNVRIIDNAVTDPNPVRPKKTIIIVIGVVLGLIVSVVLVLFQVFLRRGIESPEQLEEIGINVYASIPISEWLTKNARQSGKVRKNQSDTLLAVGNPADLAVEAIRGLRTSLHFAMMEAKNNVLMISGASPSAGKTFISSNLAATIAITGKKVLFIDADLRKGYAHKMFGHKNDKGLSEFLSGQAAAEMIIDKVEGGGFDYIGRGQIPPNPAELLMHPRFEQLLNWASQNYDLIIIDTPPILAVTDAAIIGRYAGTCLLVARFEKNTVKEIDVSMKRFEQSGVVVKGCILNGVVKKASSYYRYGHNHYGYSYYDKK
modifications: dephosphorylated by phosphatase Wzb; about 0.1% octameric particles; C-terminal His6 omitted; the PDB entity is the K540M construct, reverted to K540 / dephosphorylated by phosphatase Wzb; about 0.1%
Consider B1, for which the “stoichiometry N” value in the test with Wzb treated Wzc came out at 8.
